In patent US20240343810A1 (published 2024):

T1: mouse ICOS-mFc (Chimerigen) (mouse, UniProt Q9WVS0 21-141, limits assumed)
T1 construct: Bought; also called recombinant mouse ICOS protein; mICOS; not shown: mouse Fc of the bought fusion
T1 sequence: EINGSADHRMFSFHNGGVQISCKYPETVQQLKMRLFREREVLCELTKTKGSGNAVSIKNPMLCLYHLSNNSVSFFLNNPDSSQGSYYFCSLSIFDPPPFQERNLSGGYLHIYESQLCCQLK

T2: human ICOS-mFc (Chimerigen) (human, UniProt Q9Y6W8 21-140)
T2 construct: Bought; also called recombinant human ICOS protein; hICOS; not shown: mouse Fc of the bought fusion
T2 sequence: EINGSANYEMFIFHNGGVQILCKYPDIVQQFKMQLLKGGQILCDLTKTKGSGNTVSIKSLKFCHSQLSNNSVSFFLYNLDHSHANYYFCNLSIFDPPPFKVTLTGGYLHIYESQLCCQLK

T3: human ICOS expressed on cells (human, UniProt Q9Y6W8 21-199)
T3 construct: also called CHO-S cells transfected with human ICOS; hICOS
T3 sequence: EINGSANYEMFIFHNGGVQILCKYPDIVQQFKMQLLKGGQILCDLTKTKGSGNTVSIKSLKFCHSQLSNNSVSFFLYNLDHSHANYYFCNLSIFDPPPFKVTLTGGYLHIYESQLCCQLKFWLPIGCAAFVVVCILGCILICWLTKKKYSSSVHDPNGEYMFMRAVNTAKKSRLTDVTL

T4: Biotinylated human ICOS protein (human, UniProt Q9Y6W8 21-140, limits assumed, biotinylated (sites not given))
T4 construct: Captured on the NLC chip in the avidity SPR
T4 sequence: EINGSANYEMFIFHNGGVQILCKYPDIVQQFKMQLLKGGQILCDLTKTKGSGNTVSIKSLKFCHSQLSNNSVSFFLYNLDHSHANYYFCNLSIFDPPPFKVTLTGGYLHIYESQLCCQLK


Key:
[1] = target: T5, human PD-L1 expressed on cells (human, UniProt Q9NZQ7 19-290); test: Flow cytometry on CHO human PD-L1 cells
T5 construct: also called CHO-S cells transfected with the cDNA coding for human PD-L1; CHO human PD-L1

[2] = target: T1, mouse ICOS-mFc (Chimerigen); test: DELFIA ELISA on coated mouse ICOS-mFc, N=1
Method: Recombinant ICOS proteins, human ICOS-mFc or mouse ICOS-mFc (Chimerigen) were diluted in 1×PBS and added to Black Hi-bind plates (Griener) at 1 μg/ml, 50 μl/well. Recombinant PD-L1 proteins, human PD-L1-Flag-His or mouse-His were diluted in 1×PBS and added to Black Hi-bind plates (Griener) at 4 μg/ml, 50 μl/well. The plates were left overnight at 4° C. The next day plates were washed 3× with 300 μl/well of 1×PBS+0.1% Tween and blocked with 200 ul/well of 1×PBS+1% BSA blocking buffer for 1 hr at RT on a plate shaker. Plates were washed 3× with 300 μl/well of 1×PBS+0.1% Tween.
However, human-PD-L1 mAb² antibodies were diluted in 1×PBS+0.1% BSA buffer and diluted 1 in 2 from a starting working concentration of 0.066 μM over an 11 point titration. Titrated antibodies were added to the plates, 50 μl/well and left to incubate for 1 hr at R.T on a plate shaker. Plates were washed 3× with 300 μl/well of 1×PBS+0.1% Tween.
DELFIA® Eu-labelled Anti-human IgG (Perkin-Elmer) was diluted 1:500 in DELFIA Assay buffer (Perkin-Elmer) and added to the assay plate (50 μl/well), left to incubate for 1 hr at RT on a plate shaker. […] After incubation, assay was read on Envision plate reader (Perkin Elmer), Time-resolved fluorescence (TRF) was measured at 615 nm.

[3] = target: T2, human ICOS-mFc (Chimerigen); test: HTRF, human ICOS-mFc, competitor human B7-H2-Alexa 647, n2
Method: 5 μl of human ICOS-mFc (Chimerigen) at 20 nM (5 nM final) or 5 ul of mouse ICOS-mFc (Chimerigen) at 4 nM (1 nM final) were added to relevant assay wells. Plate was incubated for 1 hour (hr) at room temperature (RT).
After incubation, assay was read on Envision plate reader (Perkin Elmer) using a standard HTRF protocol. 620 nm and 665 nm channel values were exported to Microsoft Excel and % Delta-F and % Neutralisation calculations performed. Titration curves and IC50 values [M] were plotted using Graphpad (Prism). IC50 values were calculated by first transforming the data using equation X=Log(X). The transformed data was then fitted using nonlinear regression, using fitting algorithm, log (inhibitor) vs. response—variable slope (four parameters).

[4] = target: T3, human ICOS expressed on cells; test: Flow cytometry on CHO-S human ICOS cells, anti-human IgG AF647, N=1
Method: (§1) CHO—S cells transfected with either human ICOS or mouse ICOS were resuspended in FACS buffer (PBS+1% w/v BSA+0.1% w/v sodium azide) and transferred to a 96-well V-bottom plate (Greiner) at a density of 1×10⁵ cells per well. mAb and mAb² were titrated in FACS buffer, 1 in 3 dilution across 11 points from a starting working concentration of 400 nM. Plates were centrifuged at 300×g for 3 minutes, supernatant discarded and 50 μL mAb or mAb² solution were added to cells and incubated at 4° C. for 1 hour. Cells were washed with 150 μL of PBS and centrifuged at 300×g for 3 minutes, supernatant was discarded and cell pellet resuspended in 150 μL PBS added. This wash step was repeated twice. Bound mAb or mAb² was detected by addition of 50 μL of anti-human 647 (Jackson ImmunoResearch) diluted to 3 ug/ml in FACS buffer. Cells were incubated for 1 hour at 4° C. in the dark. Cells were washed with 150 μL of PBS and centrifuged at 300 g for 3 minutes, supernatant was discarded and cell pellet resuspended in 150 μL PBS added. This wash step was repeated twice. Cells were fixed with 25 μL 4% v/v paraformaldehyde, incubated for 20 minutes at 4° C., cells were pelleted by centrifugation at 300×g and the supernatant discarded. […] AlexaFluor 647 signal intensity (geometric mean) was measured by flow cytometry using a Beckman Coulter CytoFLEX instrument.

[5] = target: T3, human ICOS expressed on cells; test: Flow cytometry on CHO-S human ICOS cells, anti-human IgG AF647, N=3
Method: as §1

[6] = target: T4, Biotinylated human ICOS protein; test: SPR ProteOn avidity format, biotinylated human ICOS on NLC chip; calculated on-rate
Method: Biotinylated human ICOS protein diluted at 7.5 μg/mL in running buffer (1× HBS-EP+ Buffer Technova, cat. No. H8022) was captured on a NLC sensor chip (Bio-Rad, cat No 1765021). The surface was then blocked using biocytin (Sigma Aldrich, cat No B1758) at 1 mg/mL.
The assay was carried out at 25° C.
The buffer injection (i.e. 0 nM) was used to double reference the sensorgrams. […]

T5 sequence (Q9NZQ7 19-290 limits assumed): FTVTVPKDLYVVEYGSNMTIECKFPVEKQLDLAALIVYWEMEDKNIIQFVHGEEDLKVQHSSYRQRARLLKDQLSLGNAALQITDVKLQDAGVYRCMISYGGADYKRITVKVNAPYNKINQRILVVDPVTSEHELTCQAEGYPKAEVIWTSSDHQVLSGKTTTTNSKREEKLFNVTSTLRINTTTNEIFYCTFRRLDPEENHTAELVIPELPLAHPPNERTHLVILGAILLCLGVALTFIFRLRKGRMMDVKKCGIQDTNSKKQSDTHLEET

Binder	binding result [1]	EC50 [2] [nM]	IC50 [3] [nM]	EC50 [4] [nM]	EC50 [5] [nM]	kon [6] [M⁻¹ s⁻¹]
STIM001 (antibody, human IgG1, kappa, Anti-ICOS monospecific antibody, tested as human IgG1; also called STIM001 monoclonal IgG1 antibody) heavy: not shown light: DIVMTQSPLSLPVTPGEPASISCRSSQSLLHSNEYNYLDWYLQKPGQSPQLLIFLGSNRASGVPDRFSGSGSGTDFTLKITRVEAEDVGIYYCMQSLQTPLTFGGGTKVEIKRTVAAPSVFIFPPSDEQLKSGTASVVCLLNNFYPREAKVQWKVDNALQSGNSQESVTEQDSKDSTYSLSSTLTLSKADYEKHKVYACEVTHQGLSSPVTKSFNRGEC	no binding (tested: 198 nM)	11.4	1.12	30.1	19.7	7990
STIM003 (antibody, human IgG1, kappa, Anti-ICOS monospecific antibody, tested as human IgG1; also called STIM003 monoclonal IgG1 antibody) heavy: not shown light: EIVLTQSPGTLSLSPGERATLSCRASQSVSRSYLAWYQQKRGQAPRLLIYGASSRATGIPDRFSGDGSGTDFTLSISRLEPEDFAVYYCHQYDMSPFTFGPGTKVDIKRTVAAPSVFIFPPSDEQLKSGTASVVCLLNNFYPREAKVQWKVDNALQSGNSQESVTEQDSKDSTYSLSSTLTLSKADYEKHKVYACEVTHQGLSSPVTKSFNRGEC	no binding (tested: 198 nM)	0.416	0.45	7.22	4.49	267000
